# From paper PMC11935020
# B1: SspB Nano–mCherry (stringent starvation protein B, Nano, fused to mCherry), P0AFZ3 1-165 (natural protein)
# chain: SSPKRPKLLREYYDWLVDNSFTPYLVVDATYLGVNVPVEYVKDGQIVLNLSASATGNLQLTNDFIQFNARFKGVSRELYIPMGAALAIYARENGDGVMFEPEEIYDELNI
# modifications: not checked
# Biological target: improved light‐induced dimerizing protein (iLID) (Avena sativa | Escherichia coli)
# Assay: recruitment to the GUV membrane, fluorescence microscopy; 450 nM iLID (His tag on DGS–NTA (Ni) lipids, inner membrane) and 100 nM SspB–mCherry encapsulated in POPC GUVs with 5% DGS–NTA (Ni); external blue light for 15 min
binder,measurement,value
B1,ratio of mCherry intensity at the GUV membrane to luminal intensity,3 fold
